Molecular target: actin filaments (UniProt P68139)
Experiment: immunogold electron microscopy

Work on “Cap Z(36/32) (from UniProt P13127 1-286; P14315 1-277) (complex)” yielded a percent of filaments with gold label at the barbed end (immune) of 17.4%.

From publication PMC2114938
